Laboratory results from publication PMC6179282.

Legend:
[1] = target: Camelus dromedarius mu-class glutathione S-transferase (CdGSTM1) (Camelus dromedarius); assay: cross-linking; 0.25% glutaraldehyde, room temperature, 15 min, CdGSTM1 0.5 mg/mL at pH 4.0, before and after SEC; SDS-PAGE
[2] = target: Camelus dromedarius mu-class glutathione S-transferase (CdGSTM1) (Camelus dromedarius); assay: SEC; Superdex 200 Increase, 0.25 mg CdGSTM1 equilibrated at pH 4.0, buffer with 150 mM NaCl at pH 4.0
[3] = target: Camelus dromedarius mu-class glutathione S-transferase (CdGSTM1) (Camelus dromedarius); assay: SEC; analytical Superdex 200 Increase 10/300 GL, calibrated; CdGSTM1 2.5 mg/mL (also 0.25 mg loaded) in 50 mM phosphate buffer, 150 mM NaCl, pH 7.0
[4] = target: Camelus dromedarius mu-class glutathione S-transferase (CdGSTM1) (Camelus dromedarius); assay: cross-linking; 0.25% glutaraldehyde, room temperature, 15 min, CdGSTM1 0.5 mg/mL at pH 7.0, before and after SEC; SDS-PAGE

stoichiometry N [1]: 2
stoichiometry N [2]: 2
stoichiometry N [3]: 2
stoichiometry N [4]: 2
Substance: Camelus dromedarius mu-class glutathione S-transferase (CdGSTM1) (enzyme)
